Results: patent US20100325744A1 (Genmab, published 2010)

B1: Betv1-HG (antibody, V domains shown)
VH: EVQLQQSGAELVKPGASVKLSCTASGFNIKDTYIHWVKQRPEQGLEWVGRIDPATGNTRYDPKFQGKATITADTSSNTAYLQLSSLTSEDTAVYYCASFRPGYALDYWGQGTSVTVSS
VL: DIVMTQSHKFMSTSVGDRVSFTCKASQDVFTAVAWYQQKPGQSPKLLIYWASTRRTGVPDRFTGSGSGTDYTLTISSVQAEDLALYYCQQHFSTPPTFGGGTKLEIK
notes: Half-molecule of one heavy and one light chain; also called hingeless IgG4 anti-Bet v 1; hingeless rIgG4 Betv1-HG; not shown: human kappa light chain constant region, allotype km3 (vector pConKappa0.4, Lonza)
B2: 7D8-IgG4 (antibody)
heavy: not shown
light: EIVLTQSPATLSLSPGERATLSCRASQSVSSYLAWYQQKPGQAPRLLIYDASNRATGIPARFSGSGSGTDFTLTISSLEPEDFAVYYCQQRSNWPITFGQGTRLEIK
notes: Produced from pTomG47D8 and pConK7D8; also called IgG4 anti-CD20; not shown: human kappa light chain constant region, allotype km3 (vector pConKappa0.4, Lonza)
B3: 7D8-HG (antibody)
heavy: EVQLVESGGGLVQPDRSLRLSCAASGFTFHDYAMHWVRQAPGKGLEWVSTISWNSGTIGYADSVKGRFTISRDNAKNSLYLQMNSLRAEDTALYYCAKDIQYGNYYYGMDVWGQGTTVTVSSASTKGPSVFPLAPCSRSTSESTAALGCLVKDYFPEPVTVSWNSGALTSGVHTFPAVLQSSGLYSLSSVVTVPSSSLGTKTYTCNVDHKPSNTKVDKRVAPEFLGGPSVFLFPPKPKDTLMISRTPEVTCVVVDVSQEDPEVQFNWYVDGVEVHNAKTKPREEQFNSTYRVVSVLTVLHQDWLNGKEYKCKVSNKGLPSSIEKTISKAKGQPREPQVYTLPPSQEEMTKNQVSLTCLVKGFYPSDIAVEWESNGQPENNYKTTPPVLDSDGSFFLYSRLTVDKSRWQEGNVFSCSVMHEALHNHYTQKSLSLSLGK
light: B2 light
notes: Half-molecule of one heavy and one light chain; in PBS without other IgG it is reported to form a non-covalent dimer; also called hingeless IgG4 anti-CD20; IgG4 HG; not shown: human kappa light chain constant region, allotype km3 (vector pConKappa0.4, Lonza)

Assays:
[1] = target: the molecule itself; experiment: self-association; gel filtration on Superdex 200 in PBS, fractions read by Bet v 1 binding test
Protocol: Samples (100 μl) were applied to a Superdex 200 HR 10/30 column (Amersham Biosciences, Uppsala, Sweden), which was connected to a HPLC system (ÄKTA explorer) from Amersham Biosciences, Uppsala, Sweden. The column was first equilibrated in PBS. Fractions of 250 μl were collected, in which Bet v 1 specific IgG was measured using the antigen binding assay.
To test the antigen binding of the Bet v 1 specific antibodies, a sample of diluted antibody was incubated overnight at room temperature with 0.75 mg Protein-G sepharose (Amersham Biosciences, Uppsala, Sweden) in 750 μl PBS/AT (PBS supplemented with 0.3% BSA, 0.1% Tween-20, 0.05% NaN3) together with 50 μl diluted ¹²⁵I-labelled Bet v 1 or ¹²⁵I-labelled Fel d 1. […] After washing the Sepharose suspension with PBS-T (PBS supplemented with 0.1% Tween-20), the bound radioactivity was measured. The results were expressed as the amount of radioactivity relative to the amount added.

[2] = target: T1, human C1q (Quidel) (human, UniProt P02745 23-245; P02746 28-253; P02747 29-245); experiment: ELISA, antibody coated, C1q detected with rabbit anti-human C1q
T1 construct: Bought (Quidel, lot 900848); also called first component of the classical complement cascade
T1 sequence (P02745 23-245 limits assumed, chain 1 of 3): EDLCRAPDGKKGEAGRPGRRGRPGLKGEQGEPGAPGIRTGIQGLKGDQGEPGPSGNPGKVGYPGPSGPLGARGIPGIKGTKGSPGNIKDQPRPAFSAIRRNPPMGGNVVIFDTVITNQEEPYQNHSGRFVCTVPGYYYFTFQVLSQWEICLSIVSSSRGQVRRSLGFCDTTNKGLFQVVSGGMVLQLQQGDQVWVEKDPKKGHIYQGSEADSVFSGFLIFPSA
T1 sequence (P02746 28-253 limits assumed, chain 2 of 3): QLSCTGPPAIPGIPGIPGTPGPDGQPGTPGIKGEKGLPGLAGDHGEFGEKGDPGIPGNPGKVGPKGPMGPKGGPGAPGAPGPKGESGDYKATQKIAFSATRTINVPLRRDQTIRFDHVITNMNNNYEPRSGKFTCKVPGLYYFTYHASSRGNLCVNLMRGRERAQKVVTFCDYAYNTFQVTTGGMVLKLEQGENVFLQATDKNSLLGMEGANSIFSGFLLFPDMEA
T1 sequence (P02747 29-245 limits assumed, chain 3 of 3): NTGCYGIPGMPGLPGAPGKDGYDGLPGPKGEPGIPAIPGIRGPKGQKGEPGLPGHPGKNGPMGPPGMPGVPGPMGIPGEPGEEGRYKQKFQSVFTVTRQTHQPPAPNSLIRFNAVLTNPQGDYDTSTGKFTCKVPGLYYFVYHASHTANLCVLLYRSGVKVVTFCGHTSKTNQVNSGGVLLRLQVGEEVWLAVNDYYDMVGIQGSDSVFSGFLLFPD
Protocol: In short, microtiter ELISA plates (Greiner, Germany) were coated overnight at RT with the test antibodies serially diluted from 10 μg/ml to 0.06 μg/ml in PBS. Plates were emptied and wells were blocked with 200 μl ELISA-diluent per well (0.1 M NaPO₄, 0.1 M NaCl, 0.1% gelatin and 0.05% Tween-20), at RT for 30 minutes. […] After washing the plates (3×) with PBST, wells were incubated with HRP-conjugated swine anti-rabbit IgG-Fc (DAKO, P0300, lot #069) diluted in ELISA diluent (1:2500, 100 μl/well, RT, 1 hour). Thereafter, plates were washed thrice and assays were developed with freshly prepared 1 mg/ml ABTS solution (ABTS: 2,2′-azino-bis[3-ethylbenzthiazoline-6-sulfonic acid]); 2 tablets of 5 mg in 10 ml ABTS buffer, Boehringer Mannheim, Ingelheim, Germany) at RT in the dark for 30 minutes.

| Binder | binding result [1] | binding result [2] |
| --- | --- | --- |
| B1 | no binding |  |
| B2 |  | no binding |
| B3 |  | no binding |
